The target of assay [1] is T1, Carbon-terminal polyhistidine-labeled recombinant cynomolgus monkey CD73 enzyme (cynomolgus monkey, UniProt A0A2K5V5U7 1-547).
T1 chain: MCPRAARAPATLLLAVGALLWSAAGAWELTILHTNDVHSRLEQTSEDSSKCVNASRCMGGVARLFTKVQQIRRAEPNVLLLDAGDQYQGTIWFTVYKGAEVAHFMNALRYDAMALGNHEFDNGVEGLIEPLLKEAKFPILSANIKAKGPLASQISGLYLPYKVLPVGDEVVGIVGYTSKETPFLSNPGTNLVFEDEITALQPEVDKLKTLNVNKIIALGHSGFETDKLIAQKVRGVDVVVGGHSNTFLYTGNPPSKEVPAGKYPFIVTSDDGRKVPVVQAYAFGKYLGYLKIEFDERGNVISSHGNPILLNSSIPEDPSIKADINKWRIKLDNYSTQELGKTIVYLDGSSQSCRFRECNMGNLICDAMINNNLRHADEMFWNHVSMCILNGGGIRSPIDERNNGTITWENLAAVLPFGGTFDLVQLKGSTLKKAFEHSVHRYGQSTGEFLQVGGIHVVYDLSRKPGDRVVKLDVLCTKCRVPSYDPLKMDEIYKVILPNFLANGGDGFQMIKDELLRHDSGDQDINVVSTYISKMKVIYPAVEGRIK
In words: enzyme inhibition; left table.

The target in assay [2] is T2, CD73 on the surface of human tumor cells (human, UniProt P21589 27-549).
T2 chain: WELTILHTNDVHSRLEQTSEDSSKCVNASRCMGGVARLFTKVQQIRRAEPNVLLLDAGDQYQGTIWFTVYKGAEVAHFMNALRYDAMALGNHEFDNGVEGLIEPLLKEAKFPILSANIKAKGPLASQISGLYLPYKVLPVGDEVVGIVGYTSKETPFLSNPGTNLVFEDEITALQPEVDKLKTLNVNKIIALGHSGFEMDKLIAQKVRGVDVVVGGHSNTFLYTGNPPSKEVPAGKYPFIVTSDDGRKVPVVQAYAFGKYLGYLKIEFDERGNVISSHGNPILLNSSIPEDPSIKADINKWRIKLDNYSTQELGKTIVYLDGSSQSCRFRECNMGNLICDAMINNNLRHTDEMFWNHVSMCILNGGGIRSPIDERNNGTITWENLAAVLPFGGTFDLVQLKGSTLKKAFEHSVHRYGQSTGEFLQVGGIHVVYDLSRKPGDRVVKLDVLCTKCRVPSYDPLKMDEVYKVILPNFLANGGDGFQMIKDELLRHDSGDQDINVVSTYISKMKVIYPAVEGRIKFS
In words: FACS; MDA-MB-231 cells, right table. In general terms: A flow cytometer gives signals particle by particle.

Assay [3] has as its target T2, CD73 on the surface of human tumor cells. Briefly: FACS; MDA-MB-231 cells.
For assay [4] the target is unchanged. Briefly: FACS; MDA-MB-231 cells, left table.
Assay [5] deals with T3, extracellular domain of human CD73 protein (CD73-ECD), C-terminus polyhistidine-tagged (UniProt P21589 27-547).
T3 chain: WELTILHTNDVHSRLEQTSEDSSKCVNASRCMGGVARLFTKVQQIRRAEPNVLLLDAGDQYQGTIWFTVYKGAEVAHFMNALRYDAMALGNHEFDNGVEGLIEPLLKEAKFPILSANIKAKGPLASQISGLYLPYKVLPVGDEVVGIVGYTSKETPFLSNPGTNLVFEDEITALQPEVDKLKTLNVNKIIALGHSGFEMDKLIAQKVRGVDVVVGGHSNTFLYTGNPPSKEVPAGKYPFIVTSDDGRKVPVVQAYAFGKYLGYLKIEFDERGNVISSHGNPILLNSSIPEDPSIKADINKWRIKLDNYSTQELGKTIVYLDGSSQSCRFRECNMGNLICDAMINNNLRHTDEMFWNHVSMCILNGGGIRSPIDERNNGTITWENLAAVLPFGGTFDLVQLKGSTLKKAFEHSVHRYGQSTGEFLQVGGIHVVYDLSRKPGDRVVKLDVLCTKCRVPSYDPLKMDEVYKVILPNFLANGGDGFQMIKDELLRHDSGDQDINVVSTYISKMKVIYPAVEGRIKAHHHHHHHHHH
Briefly: enzyme inhibition; left table.

Assay [6] concerns the target T3, extracellular domain of human CD73 …. In words: enzyme inhibition; right table.
Assay [7] deals with T1, Carbon-terminal polyhistidine-labeled …. In words: enzyme inhibition; right table.
Assay [8] deals with T2, CD73 on the surface of human tumor cells. Briefly: FACS; NCI-H1299 cells, left table.
Assay [9] shares this target. In words: FACS; MDA-MB-231 cells, left table.
The target is the same in assay [10]. Briefly: FACS; NCI-H1299 cells, right table.
The target is the same in assay [11]. Briefly: inhibition of cell-surface CD73 enzyme activity; left panel.
For assay [12] the target is unchanged. In words: inhibition of cell-surface CD73 enzyme activity; right panel.
Assay [13] shares this target. Briefly: FACS; MDA-MB-231 cells, right table.
Assay [14] has the same target. Briefly: FACS; NCI-H1299 cells, left table.

IC50 and EC50 data for two molecules are collected here from US20210024646A1 (published 2021).

B1: mAb001c (antibody, V domains shown)
VH: QVQLQQSGPELVKPGASVRISCKTSGYTFTNYYIYWVKQRPGQGLEWIGWIYPGNLNIKYNEKFKGKSTLTADKSSSTAFMQLSSLTSEDSAVYFCARDDNYAWFAYWGQGTLVTVSS
VL: DIVMTQSHKFMSTSIGDRVSITCKASQDVSTAVAWYQQKPGQSPKLLIYWTNTRHTGVPDRFTGNTSGTEHTLTISSVQAEDLALYYCQQHYSTPFTFGSGTTLEIK
Usually IC50 stands for the concentration at which inhibition is half-maximal. By EC50 is commonly meant the midpoint of the concentration-response curve. As to B1, the IC50 amounted to 0.04 nM in assay [1], 0.03 nM in [5], 0.02 nM in [6] and 0.04 nM in assay [7]. The EC50 stood at 0.618 nM in [2], 1.19 nM in assay [3], 0.45 nM in assay [4] and 1.48 nM in assay [8].

B2: mAb002c (antibody, V domains shown)
VH: QVQLQQPGAELVKPGASVRLSCKASGYTLTSYWMHWVKKRPGQGLEWIGEINPSNGRSNYNEKFKSKATLTVDRSSSTVYMQLGSLTSEDSAVYYCARRGVSGNYFDYWGQGTTLTVSS
VL: DIKMTQSPSSMYASLGERVTMTCKASQDINTYLSWFQQKPGKSPKTLIYRSNILVDGVPSRFSGSRSGQDYYLTITSLEYEDMGIYYCLQYDEFPYTFGGGTKLELK
As for B2, the EC50 in assay [9] came to 0.466 nM; in assay [3], 0.544 nM; in [10] it was 0.53 nM; in [13] it was 0.466 nM; in assay [14], 0.658 nM. In addition, the 50% inhibitory concentration (IC50) came to 0.039 nM in assay [1]; 0.317 nM in assay [11]; 0.363 nM in [12]; 0.037 nM in assay [5]; 0.038 nM in assay [6]; 0.039 nM in assay [7].
